# Results: the DeepSol protein solubility set
# Experiment: soluble on expression in E. coli; label from the status in PepcDB or PDB records
row,Sequence,soluble on expression in E. coli
1,MSLLTVVHDQDSSNEDACGSRSLLDEIVRDGARQMLAAALAAEVAAYIDAHAGEVDENGHRLVVRNGYHREREVLTAAGAVTVIAPRVNDKRIDADTAERRRFSSAILPAWARKSPQMTEVLPLLYLHGLSTSDFGPALEQFLGSGAGLSATTITRLTAQWQDEAKAFGERDLSGTDYVYLWVDGIHLKVRLEQEKLCLLVMIGVRSDGRKELVGLADGYRESTESWADLLRSCRRRGMTAPVLAVGDGALGFWKAMREVFPATREQRCWFHKQANVLSCLPKSAHPGALAAMREIYNAEDIDHAQVAIKAFEVDYGAKYPKAVAKIVDDADVLLEFYRYPAEHWIHLRTTNPIESTFATVRLRTKVTKGPGSRAAGIAMAYKLIDAAQARWRAVNAPHLVALVRAGAVFHKGKLLEREGHHHHHH,not soluble
2,MSLMKQIKHFNQNYQELRQLGKVAIGRRAGKLKAGTIILFAVDSQGKILAARKMQGVTVLAKFHPLPQYVNEDIHYMDHYHPLVQKENKLTQQAMENAREIYLRVELGNYQETQPLTPLNGAKIQWQLWKNKVQTKLKGSVEEGHHHHHH,not soluble
3,MSLMSSKPIYKRVLLKASGEALMGDQGFGIDVAVADRIASDIAEARAMGVEVGVVVGGGNIFRGVAVASKGGDRVTGDHMGMLATVINALALATSLRKLSIDTVVLSAIAMPEICESFSQRAALHHLAQGRVVIFAGGTGNPFFTTDSAAALRAAEMGAEAIFKGTQVDGIYSADPKKDPTATRFDELTHSEVLGKGLAVMDIAAVALARENHIPIIVFSIHEKGGFAQILTGGGRKTIVHDKEGHHHHHH,soluble
4,MSLNADKFRKIDAHSHIQVLGYPFNVSITPEEFLSLMEAYNIEIAIISDVNNDNIAKIVKEYPDKLVGIYWPNPRDEKSINETEKFLEKYEFRGIKLHPLLNMFSPSDPRVEKIMKIAEEFNVHVQIHSGHPPTSLPWQIEELARKFPEVKIVMVHMGHGNAYYIQGAIEIAGRNENIYLETSGMPMPSKIAEAYEVAPRRVVFGIDLPCHHPVVEIAKVLISGLNEKGMKRVFYENAKVLLEGHHHHHH,not soluble
5,MSLNADTPLQLLGGLTAAEFLRDYWQRKPLLVRQAIPDFESPLSADELAGLSLEESVESRIVLEHGKTPWEMRRGPFQEEDYQHLPEQDWTLLVQAVDQFVPEVAQLLEQFRFLPSWRIDDVMISYAAPGGGVGPHFDNYDVFLLQGHGRRRWKVGQMCSSDSPLREHADLRILADFEQSDEWVLEPGDMLYLPPRLAHYGIAEDECMTYSIGFRAPSAAEVLTHFTDSLGQFLSDEERYTDAGLQPVGDDPHQIQRDALERLQGLIQEHMSDERLLLTWFGQFMTEPRYPELVAGEDIPEEELFGALEDGALLVRNPSARLAWSEIDIGLVLFASGQSVLLPGQLKELLKLVCSADALHLENLGQWLADDDARKLLAELVKQGSLEFADEEGGSHHHHHH,soluble
6,MSLNAEEKKGLQRAIEEITEIAKGFGLDFYPMRYEICPAEIIYTFGAYGMPTRFSHWSFGKQFHKMKLHYDLGLSKIYELVINSDPCYAFLLDSNSLIQNKLIVAHVLAHCDFFKNNCRFQNTKRDMVESMAATAERIKHYEQVHGIKEVESFLDAILSIQEHIDPSLVRPKLQWSVDDEEEEIEEAATPYDDLWSLDEKKPKKQVKKSKKPFPPRPEKDILLFIEEHSRELEPWQRDILTMMREEMLYFWPQLETKIMNEGWASYWHQRIIRELDLTSDEAIEFAKLNAGVVQPSKTGINPYYLGLKIFEDIEKRYNNPTEEMKKMGVQPDSGREKMFEVREIESDISFIRNYLTKELVMREDLYLFQKQGRDYKIIDKQWKSVRDQLVSMRVNGGFPYLTVNDGDYMKNNELYIKHWYEGIELDLKYLEKVLPYLFQLWGRSVHIESVLEDKEVMFSYDGKGVHRRYLEGHHHHHH,not soluble
7,MSLNAEIGIDSITLSIARVTPSTHWTFVEIVDEENRIGLGEATLTGRDSELLRAASDMFPAIVDMRVDDAASWLDTLELGTIARAAVASALSHAVTDLRARIRNRSIAELLGHPVRAFIPMYANINRRTHTRSPDSFAHSARSAVAAGFSAVKIAPFDGVTLYGSDAHAQPSLIDAALERIAAVRDAVGPAVDVMVDCHWRLNAHVARQVLASDVCDGLHWLECPLPETPDRLHELRALRSLANDRGIRLAGCEEAIRAEGFMPFVEAGAYDVMMPDVKYVGSVDEMLHVAQLLGRHDVEFSPHNPSGPVAHAVSMQICSLVPNFRRMEMQFDETPYFHTLTGATVPVPDNGGAQIARTSGIGMRLDRDALDPLTIRRLQFHRACRAGELVVTEGHHHHHH,soluble
8,MSLNDTALTITAVRAVLLSHRYQPGEELTWVGGTIWSWDAALVEVTLSDGTTGIGEAGAGIMAAAAVPGIVDAFRPYVLDHEFGHPLEVADHLRAYTAFWARGGMLNGVAGAIETAAVDAVAKRLGVPAYEVLGGLKRDWIESYASGGLGTTFGEVSDWAAAQIEAGFGTVKFRAMTDPDTTIKLLDHVTALLPEGIQFVIDAVQACASDPWPVDEAIRVGQKAAELGARWYEEPCQADDVAGYAAVRAAVNVPISGVESNGTVRDFAQLLDAKALDVAQPDVTFVGGPKAFAQVAELAHATGVKTVPHVWGSGVTFAANLHTVLANPYVELFEYCTLPNPLRDAMRVEEVDFRDGGIVAPTAPGLGIQLTPEIEAQFPFSPGGGHVIREGHHHHHH,soluble
9,MSLNKKIEELNKLDKKVVLAPMAGITDGDFCRKFKDLFAIVTIGGYNLDSATYKASRDIEKRGRKEFSINLEEFNSYIIEQIKKARESNALVSVNVRFVDIDEAYDKLLTIAKHADIIELNCHCRQPEITSLGIGQELMKNKNLLKEFLTKMKELNKPIFLKIRLNCIPLKELIDNLNYVRDYFDGLHVDCFYPGKPYADMDSLKILAEEFNDKIIIGNNSIDSIEKAKEMLKYSDFVSVARTILKGNVEWIKELNKENIEGHHHHHH,soluble
10,MSLNLKKAELHVHLEGTISPELAKKLAKRNQLTLPNGLIAPDEKSYLSRDFLDFLKVYDTLASVIKNPQDYYDITFDYLKSNAQEHAIYIEMMYSPDHAEQSSGIPSKEHLAAIQQAIDDAKSQFDIVGRIIITAVRHFGVEACERVAKQASIDKFPCVTGFGLGGDEAKFPPQLFTKAYQIAADSGLECTVHAGEFDSAKGMEEAMKTLPIKRIGHGVRVIDSPDIMAMVKDQGIALEVCPTSNIFLGLFKDMNSHPFPKLYEAGIKVSINSDDPPFMSTTLAQEYKRVQKAYGYNNDTMNNITRMAIEAAFVDEKTRKELLTKLEQEGHHHHHH,soluble
11,MSLNNIQIRNYQPGDFQQLCAIFIRAVTMTASQHYSPQQISAWAQIDESRWKEKLAKSQVWVAIINAQPVGFISRIEHYIDMLFVDPEYTRRGVASALLKPLIKSESELTVDASITAKPFFERYGFQTVKQQRVECRGAWFTNFYMRYKPQHEGGSHHHHHH,soluble
12,MSLNPKQVSQKLANKPKDRPIAFVSKPDSLTQCLTPVFTNSEGYVSVSDCEEAIDARYDVFSRIAWKLRDGWVCLSAENEKYNQGKRLILRPCVIDDKTQSFTIKDNMLYTPDLRFVVRIANGFLTLQKSQSKGAQSNLILHNMQEWLDTIATPAPLMQKGFIAWKFISPQGFDVYYLRNNESIKNDPQELYFNLENGIIAQYDSASAKMFCLTSKQNAKQDWNWASWEECLQQNLRENKAAPSKLNAQNWKLFMFADNDSAMLKDYLGNFLRVTKYGSNWGVPYTAKADYLAKDTNEGQTSYFQFRHDMQDWERFKNANLSDSLPTCPANGSYAKNLKASVKLPPSFVLTQEWKKRLWQIATTTDGVLERAGDCGVCLLHSYQMIAEMNEYTATPLESGGFFFDTAFGRNPFTSFRARYPMLAASLEQYRASNTPPGLSRSAVFAYAAQMYRAIALSLFPGHFWLSSEFATSDVTIRSALRDLFQQPAGTLWVVQMYYVARDGSFNGHGMPVLRTGDGIQFIPTNLTNMNYEGYERALSNSFAHNLREAYNVVTRNGTLNLYMLYSLRLREIYPNPINAFVSNNNCSGEGEDRRGTRNMPLSRFINQCASGRCVLQEGHHHHHH,not soluble
13,MSLNPNVQECSFEETIEAHLFANGYASLPASDYDAALALFPTSVLTFVRATQLKEWAKLEALHGANTEATVLKDLTHWLDTHGTLAVLRNGFKCYGRTLRVAYFKPAHGMNPELAAQYAANRVGVIRQLRYSQRNTNELDLVLSINGIPVFTAELKNPMTGQTVTNAIAQYQHDRDHREPLFEFKRRALVHFAVDTEQVFMTTRLAGSATHFLPFNKGLDGGAGNPPDPAGRAYRTAYLWEEVWQRDSLLDIFARFIHLQVEEKRTDDGRKIKKETMIFPRYHQLRAVRELEDAARTEGPGHNYLVEHSAGSGKSNTIGWLAHRLASLHNESDHKVFDSVIVITDRRVLDRQLQDTIYQFEHRQGVVQKIDEDSRQLAEALTNSVPIIISTLQKFPFVARQLARMAEERREGADGILPTRRCAVIIDEAHSSQSGETATDLKEVLGGHVLREEAARYAVDEGVDNLDELYRSMAKRGRQTNLSFFAFTATPKHKTLAVFGRDEAGKAGQPFHRYTMSQAIEEGFIMDVLKNYTTYATYYKLVKASEDDPNVERKQAAKALARFMRLHPYNIAQKTEVMVEHFNAVTRHKVGGKAKAMVVTGSRLEAVRYKLAFDAYIREKGYSWIKTLVAFSGEVVDDELPGKTWTEVGMNGGIKEGVLPEKFDSSEYQVLLVAEKYQTGYDQPLLHTMYVDKRLAGIQAVQTLSRLNRMHPLKEDTFVLDFVNDRQEIKEAFKQYHEGAEMGEEADPNQMYAIKAELDASGIYLLEEMQRFIGIYFKPKQRQSPADHQAMNEGHHHHHH,not soluble
14,MSLNQTILNRVKTRVMHQLVSSLIYENIVVYKASYQDGVGHFTIEGHDSEYRFTAEKTHSFDRIRITSPIERVVGDEADTTTDYTQLLREVVFTFPKNDEKLEQFIVELLQTELKDTQSMQYRESNPPATPETFNDYEFYAMEGHQYHPSYKSRLGFTLSDNLKFGPDFVPNVKLQWLAIDKDKVETTVSRNVVVNEMLRQQVGDKTYEHFVQQIEASGKHVNDVEMIPVHPWQFEHVIQVDLAEERLNGTVLWLGESDELYHPQQSIRTMSPIDTTKYYLKVPISITNTSTKRVLAPHTIENAAQITDWLKQIQQQDMYLKDELKTVFLGEVLGQSYLNTQLSPYKQTQVYGALGVIWRENIYHMLIDEEDAIPFNALYASDKDGVPFIENWIKQYGSEAWTKQFLAVAIRPMIHMLYYHGIAFESHAQNMMLIHENGWPTRIALKDFHDGVRFKREHLSEAASHLTLKPMPEAHKKVNSNSFIETDDERLVRDFLHDAFFFINIAEIILFIEKQYGIDEELQWQWVKGIIEAYQEAFPELNNYQHFDLFEPTIQVEKLTTRRLLSDSELRIHHVTNPLGVGGINDATTISETEGHHHHHH,soluble
15,MSLNRVSHPLTYENFKTSSAEQESKITKLLENLYKGGKRIVKLRNDPTGVTHAIRLDNDIFKLNVYIKNIDTSKSNLRYTEGYLQSLTNILTRAKEIAIQGASGTYESDDKKMISKEVNALLEDVVAIANAKGPDGYSIFSGTKIDSEAFKVTRENKISKTSKDGAGPQIIKVEYNGNQAEKKTEVYNDIHMSNNYPGNVIFFLQNQNIISSINTNGFAVKENTKIYIDNIEIGLTAGDTALDIVAKINESSAPVEASIDPVLNSLSIKTTTPHQIWITEEKESNVLQTLGILTKNNDTKLPPYNLSSSTEVRSRSIFDALIELRDTLYNNKEELVGSRSLAEIDESLKRLLISVADLGAKENRLDRSYERISKEAADMKEDMIQYTDEGHHHHHH,soluble
16,MSLNTVYHSYQSLPNEGWGKSDTLSFQCPVTDSIPGTLRLFAEVRNRSEYPYRNLYLFIHENLLDSTVWRTDTIAVNLADSTGRWTGNGWGSIYQTAVFVKSVRPLHPGNYTVKIVHGMQDEKLTGLNDVGIRIEKQGEGHHHHHH,soluble
